Read-outs that look alike come from different tables or passages of the source.

The nature of the series: Ex vivo biodistribution screen of 111In-labeled DOTA-TATE derivatives in normal mice. On the set-up: species or system athymic nude mice. Particulars: 2 h post-injection; for tissue uptake at 2 h: athymic nude, mouse, iv, 1 ug per mouse, total radioactivity, normal athymic nude mice, mean; for Relative kidney retention, % rel. to DOTA-TATE: normal mice, 111In-DOTA-TATE set as 100%. As for the experimental part:
The panel of 10 compounds were then tested in an initial biodistribution screen of 9 organs assessed in non-tumor-bearing mice at specific timepoints following administration of the radioconjugates. Each agent was initially labeled with ^111In, a long-lived gamma-emitting radioisotope suitable for biodistribution studies, with high radiochemical yields and purity (Fig. S12). The compounds were then dosed (1.55 ± 0.12 MBq; 1 μg per mouse) in healthy athymic nude mice via intravenous (i.v.) injection in phosphate-buffered saline (PBS; vehicle). After 2 hours, the mice were sacrificed and ex vivo biodistribution analysis was performed (Fig. 2). […] This was an expected finding because this variant was designed to bind serum albumin.
Radiolabeling and In Vivo Evaluation of DOTA-TATE Variants:
Biodistribution, PET Quantification, and Dosimetry
Radiolabeling: To perform the initial biodistribution screen, radiolabeling of 10 compounds, including DOTA-TATE, was carried out using 111In (Cardinal Health, Arbutus, MD, USA), an affordable and readily available gamma -emitting radioisotope with a moderate half -life (2.83 days), which affords efficient DOTA radiolabeling and facilitates handling. 111InCl3 (28 – 36 MBq) was diluted with 0.4 M NH 4OAc buffer (pH 5.2) and combined with DOTA -TATE variants (20 μg). The solution was mixed well and then incubated at 90 °C for 30 min.
Radiolabeling efficiency and radiochemical purity were determined by radio -TLC and radio - HPLC. Radiochemical yield was >95% and the material was used without further purification.
The specific activity was 1.55 ± 0.12 TBq/g (41.9 ± 3.2 Ci/g). […]
Radio-instant thin-layer chromatography (radio-iTLC) was performed using silicic acid-impregnated glass microfiber paper strips (iTLC-SA, Varian, Lake Forest, CA, USA) as the stationary phase, and 50 mM EDTA in 100 mM NH4OAc (pH 5.5) as the mobile phase, analyzed with a radio-TLC scanner (AR-2000, Eckert-Ziegler, Wilmington, MA, USA). For Ac-225, equilibration was allowed for at least 12 hours before scanning the TLC strips to confirm initial scans. Radio-HPLC analysis (Agilent 1260 Infinity II, Agilent Technologies Inc., Santa Clara, CA, USA) was conducted on a TSK- Octadecyl-4PW column (5 µm, 4.6 mm ID × 15 cm, Tosoh
Co. Tokyo, Japan) with gradient elution using 0.1% trifluoroacetic acid in water as mobile phase A and 0.1% trifluoroacetic acid in acetonitrile as Mobile phase B. The elution sequence was 0-5 […]
PET imaging and biodistribution: For initial biodistribution screen studies, normal mice were administered 1.4 – 1.8 MBq (1 μg) of 111In-DOTA-TATE variants via tail vein injection and biodistribution studies were conducted at 2 hours post -injection (n = 2 – 4 per cohort).
For studies involving three variants (DOTA -TATE, DOTA-MVK(ε)-TATE, and DOTA-β-Gal-TATE), AR42J cells (5 × 10^6 cells per mouse) were subcutaneously inoculated into the right shoulder of the mice. Tumors were allowed to grow for 3 weeks, reaching a volume of 100 –200 mm³ before being used in subsequent experiments. For biodistribution or PET imaging studies, mice bearing subcutaneous AR42J tumors were administered 1.4 – 1.8 MBq (1 μg) of 111In-labeled DOTA-TATE variants or 2.7 – 4.9 MBq (1 μg) of 86Y-labeled DOTA-TATE variants via tail vein injection. Biodistribution studies with 111In-labeled DOTA -TATE variants were performed 1 hour post -injection (n = 3 per cohort), while studies with 86Y-labeled DOTA-TATE variants were conducted at 1, 4, and 24 hours post -injection (n = 3 per cohort). Mice were euthanized by CO2 asphyxiation, and 10 tissues, including tumors, were collected. All samples were weighed and counted on a gamma counter (2480 Wizard 3, Perkin Elmer Inc., Waltham, MA, USA). Results are presented as percentage of injected activity per gram (%IA/g) and mean values ± standard deviations.
PET imaging to assess the uptake of three 86Y-labeled DOTA-TATE variants (2.7 – 4.9 MBq, 1 […]

[1] abbreviates: blood, i.v. 1 μg (1.4–1.8 MBq), ex vivo gamma counting, n = 2–4, read-out: Blood uptake.
[2] abbreviates: femur, i.v. 1 μg, ex vivo, n = 2–4, read-out: Femur uptake.
Where [3] appears, read: heart, i.v. 1 μg, ex vivo, n = 2–4, read-out: Heart uptake.
[4] abbreviates: intestine, i.v. 1 μg, ex vivo, n = 2–4, read-out: Intestine uptake.
Where [5] appears, read: liver, i.v. 1 μg, ex vivo, n = 2–4, read-out: Liver uptake.
[6] abbreviates: lung, i.v. 1 μg, ex vivo, n = 2–4, read-out: Lung uptake.
Setting [7] is: muscle, i.v. 1 μg, ex vivo, n = 2–4, read-out: Muscle uptake.
[8] abbreviates: spleen, i.v. 1 μg, ex vivo, n = 2–4, read-out: Spleen uptake.

As for `CSCC[C@H](NC(=O)CN1CCN(CC(=O)O)CCN(CC(=O)O)CCN(CC(=O)O)CC1)C(=O)N[C@H](C(=O)N[C@@H](CCCCNC(=O)CCCC(=O)N[C@H](Cc1ccccc1)C(=O)N[C@H]1CSSC[C@@H](C(=O)N[C@H](C(=O)O)[C@@H](C)O)NC(=O)[C@H]([C@@H](C)O)NC(=O)[C@H](CCCCN)NC(=O)[C@@H](Cc2c[nH]c3ccccc23)NC(=O)[C@H](Cc2ccc(O)cc2)NC1=O)C(=O)O)C(C)C` [^111In-DOTA-MVK(ε)-TATE, metal not drawn], the “Relative kidney retention, % rel. to DOTA-TATE” value turned out to be 67%. Also, the tissue uptake at 2 h under setting [1] amounted to 0.15 %ID/g. For the same compound, the tissue uptake at 2 h under setting [2] came out at 0.31 %ID/g. Also, the tissue uptake at 2 h under setting [3] stood at 0.11 %ID/g. Also, under setting [4], the tissue uptake at 2 h came to 0.83 %ID/g. The tissue uptake at 2 h under setting [5] was found to be 0.16 %ID/g. Besides, the tissue uptake at 2 h under setting [6] came to 0.33 %ID/g. Also, the tissue uptake at 2 h under setting [7] was found to be 0.06 %ID/g. Moreover, under setting [8], the tissue uptake at 2 h stood at 0.12 %ID/g.
For `C[C@@H](O)[C@H](NC(=O)[C@@H]1CSSC[C@H](NC(=O)[C@@H](Cc2ccccc2)NC(=O)CN2CCN(CC(=O)O)CCN(CC(=O)O)CCN(CC(=O)O)CC2)C(=O)N[C@@H](Cc2ccc(O)cc2)C(=O)N[C@H](Cc2c[nH]c3ccccc23)C(=O)N[C@@H](CCCCN)C(=O)N[C@@H]([C@@H](C)O)C(=O)N1)C(=O)O` [^111In-DOTA-TATE, metal not drawn, reference compound], the tissue uptake at 2 h is, setting by setting: under setting [1], 0.04 %ID/g; under setting [2], 0.05 %ID/g; under setting [3], 0.03 %ID/g; under setting [4], 0.51 %ID/g; under setting [5], 0.09 %ID/g; under setting [6], 0.18 %ID/g. Also, the tissue uptake at 2 h by setting is: under setting [7], 0.01 %ID/g; under setting [8], 0.06 %ID/g.
With `C[C@@H](O)[C@H](NC(=O)[C@@H]1CSSC[C@H](NC(=O)[C@@H](Cc2ccccc2)NC(=O)CCCC(=O)Nc2cc(COC(=O)N(C)CCNC(=O)CN3CCN(CC(=O)O)CCN(CC(=O)O)CCN(CC(=O)O)CC3)ccc2O[C@@H]2O[C@H](CO)[C@H](O)[C@H](O)[C@H]2O)C(=O)N[C@@H](Cc2ccc(O)cc2)C(=O)N[C@H](Cc2c[nH]c3ccccc23)C(=O)N[C@@H](CCCCN)C(=O)N[C@@H]([C@@H](C)O)C(=O)N1)C(=O)O` [^111In-DOTA-β-Gal-TATE, metal not drawn], the “Relative kidney retention, % rel. to DOTA-TATE” value is 67%. The tissue uptake at 2 h (in vivo, i.v. 1 μg (1.4–1.8 MBq), ex vivo gamma counting, n = 2–4, read-out: Blood uptake) amounted to 0.04 %ID/g. For the same compound, the tissue uptake at 2 h (in vivo, i.v. 1 μg, ex vivo, n = 2–4, read-out: Femur uptake) was found to be 0.07 %ID/g. Under “in vivo, i.v. 1 μg, ex vivo, n = 2–4, read-out: Heart uptake”, the tissue uptake at 2 h is 0.03 %ID/g. Moreover, where the note is “in vivo, i.v. 1 μg, ex vivo, n = 2–4, read-out: Intestine uptake”, the tissue uptake at 2 h worked out at 0.49 %ID/g. Further, the tissue uptake at 2 h (in vivo, i.v. 1 μg, ex vivo, n = 2–4, read-out: Liver uptake) turned out to be 0.11 %ID/g. Further, the tissue uptake at 2 h (in vivo, i.v. 1 μg, ex vivo, n = 2–4, read-out: Lung uptake) came to 0.28 %ID/g. Moreover, the tissue uptake at 2 h (in vivo, i.v. 1 μg, ex vivo, n = 2–4, read-out: Muscle uptake) is 0.02 %ID/g. Besides, the tissue uptake at 2 h (in vivo, i.v. 1 μg, ex vivo, n = 2–4, read-out: Spleen uptake) turned out to be 0.08 %ID/g.
